Source: patent US7771961B2, “Cytochrome c acetylation” (Elixir Pharmaceuticals, Inc, priority 2002, dated 2010)

B1: recombinant GST-SIRT3: recombinant GST fusion of a fragment of human SIRT3 lacking the first 100 amino acids of the N-terminus (protein)
chain: SISFSVGASSVVGSGGSSDKGKLSLQDVAELIRARACQRVVVMVGAGISTPSGIPDFRSPGSGLYSNLQQYDLPYPEAIFELPFFFHNPKPFFTLAKELYPGNYKPNVTHYFLRLLHDKGLLLRLYTQNIDGLERVSGIPASKLVEAHGTFASATCTVCQRPFPGEDIRADVMADRVPRCPVCTGVVKPDIVFFGEPLPQRFLLHVVDFPMADLLLILGTSLEVEPFASLTEAVRSSVPRLLINRDLVGPLAWHPRSRDVAQLGDVVHGVESLVELLGWTEEMRDLVQRETGKLDGPDK
modifications: left off: a dimerising Fc or GST
notes: recombinant GST fusion of a fragment of human SIRT3 lacking the first 100 amino acids of the N-terminus
B2: cell derived SIRT3: SIRT3 enzyme derived from pull down of 293T cell extracts (protein)
chain: MAFWGWRAAAALRLWGRVVERVEAGGGVGPFQACGCRLVLGGRDDVSAGLRGSHGARGEPLDPARPLQRPPRPEVPRAFRRQPRAAAPSFFFSSIKGGRRSISFSVGASSVVGSGGSSDKGKLSLQDVAELIRARACQRVVVMVGAGISTPSGIPDFRSPGSGLYSNLQQYDLPYPEAIFELPFFFHNPKPFFTLAKELYPGNYKPNVTHYFLRLLHDKGLLLRLYTQNIDGLERVSGIPASKLVEAHGTFASATCTVCQRPFPGEDIRADVMADRVPRCPVCTGVVKPDIVFFGEPLPQRFLLHVVDFPMADLLLILGTSLEVEPFASLTEAVRSSVPRLLINRDLVGPLAWHPRSRDVAQLGDVVHGVESLVELLGWTEEMRDLVQRETGKLDGPDK
modifications: left off: large carriers
notes: SIRT3 enzyme derived from pull down of 293T cell extracts
B3: recombinant GST-SIRT2: recombinant GST fusion of human SIRT2, NAD-dependent deacetylase (protein)
chain: MAEPDPSHPLETQAGKVQEAQDSDSDSEGGAAGGEADMDFLRNLFSQTLSLGSQKERLLDELTLEGVARYMQSERCRRVICLVGAGISTSAGIPDFRSPSTGLYDNLEKYHLPYPEAIFEISYFKKHPEPFFALAKELYPGQFKPTICHYFMRLLKDKGLLLRCYTQNIDTLERIAGLEQEDLVEAHGTFYTSHCVSASCRHEYPLSWMKEKIFSEVTPKCEDCQSLVKPDIVFFGESLPARFFSCMQSDFLKVDLLLVMGTSLQVQPFASLISKAPLSTPRLLINKEKAGQSDPFLGMIMGLGGGMDFDSKKAYRDVAWLGECDQGCLALAELLGWKKELEDLVRREHASIDAQSGAGVPNPSTSASPKKSPPPAKDEARTTEREKPQ
modifications: left off: a dimerising Fc or GST
notes: recombinant GST fusion of human SIRT2, NAD-dependent deacetylase

Experiments:
[1] = tested on: chemically acetylated cytochrome c; test: titrated acetate release assay of deacetylation activity; format: biochemical; settings: in vitro, in the presence and absence of NAD
Description: (§1) The activity of these proteins was determined in vitro using either a ^14C-nicotinamide release assay or a titrated acetate release assay.
(§2) Recombinant GST-SIRT2 deacetylation activity was tested on chemically acetylated cytochrome c in the presence and absence of NAD. Deacetylation activity was determined in vitro using a titrated acetate release assay.
as §2, with “GST-SIRT3” for “GST-SIRT2”, “NAD. The recombinant SIRT3 was a fragment of human SIRT3 lacking the first 100 amino acids of the N-terminus of full length human SIRT3.” for “NAD.”

[2] = tested on: chemically acetylated cytochrome c; test: 14C-nicotinamide release assay of deacetylation activity; format: biochemical; settings: in vitro, enzyme from pull down of 293T cell extracts, GFP as control
Description: as §1
Cell derived GST-SIRT3 deacetylation activity was tested on chemically acetylated cytochrome c. The SIRT3 was derived from “pull down” 293T extracts.
Deacetylation activity was determined in vitro using a ^14C-nicotinamide release assay. Deacetylation was determined for GFP (control) with chemically acetylated cytochrome c, SIRT3-GFP with chemically acetylated cytochrome c, and SIRT3-GFP with histone 4.

Row | Molecule | deacetylation activity on chemically acetylated cytochrome c [1] | deacetylation activity on chemically acetylated cytochrome c [2]
1 | B1 | deacetylates cytochrome c in a NAD dependent manner | 
2 | B2 |  | deacetylates cytochrome c
3 | B3 | deacetylates cytochrome c in a NAD dependent manner | 
